Here are results for 1 molecule from EP2112166B1.

Assay [1] has as its target CTLA-4-IgG1 fusion protein (made in-house) (human) (UniProt P16410). Nature of the assay: BIAcore; CTLA-4-Ig on chip, 457.2 RU. A general note: SPR reads the build-up and loss of mass on a sensor chip optically.
Assay [2] shares this target. Nature of the assay: BIAcore; CTLA-4-Ig on chip, 504.5 RU.
For assay [3] the target is unchanged. Nature of the assay: BIAcore; CTLA-4-Ig on chip, 878.7 RU.
The target in assay [4] is CTLA-4-Ig(G4) (Repligen) (UniProt P16410). Nature of the assay: competition ELISA: CTLA-4-Ig(G4) binding to coated B7.1-Ig(G1). For orientation: In an ELISA, binding on a coated surface is turned into a signal by an enzyme label.
Assay [5] has the same target. Kind of assay: competition ELISA: CTLA-4-Ig(G4) binding to coated B7.2-Ig(G1).

B1: 4.10.2 antibody (antibody, from another filing, human IgG2, V domains shown)
VH: GVVQPGRSLRLSCVASGFIFSSHGIHWVRQAPGKGLEWVAVIWYDGRNKDYADSVKGRFTISRDNSKNTLYLQMNSLRAEDTAVYYCARVAPLGPLDYWGQGTLVTVSS
VL: SPGTLSLSPGERATLSCRASQSISSNFLAWYQQKPGQAPRLLIYRPSSRATGIPDSFSGSGSGTDFTLTISRLEPEDFALYYCQQYGTSPFTFGPGTKVDIKR
The Kd is a measure of binding affinity in units of concentration. A lower Kd goes with higher affinity. As a reminder, the koff is the rate constant with which the complex falls apart. A high value points to a short-lived complex. Usually kon stands for the rate constant with which the complex forms. A word on the IC50: it is the midpoint of a concentration-inhibition curve. Low readings indicate greater potency, high ones weaker potency. In assay [1], B1 had a Ka of 1.4e+09 M⁻¹, a Kd of 721 pM, a dissociation rate constant (koff) of 0.000505 s⁻¹ and a kon of 700000 M⁻¹ s⁻¹. In assay [2], this molecule showed a Ka of 2.2e+09 M⁻¹, a dissociation constant (Kd) of 455 pM, a koff of 0.00043 s⁻¹ and a kon of 940000 M⁻¹ s⁻¹. In assay [3], this molecule had a Ka of 3.9e+09 M⁻¹, a dissociation constant (Kd) of 254 pM, a koff of 0.000253 s⁻¹ and an association rate constant (kon) of 1e+06 M⁻¹ s⁻¹. The molecule also gave a half-inhibitory concentration (IC50) in assay [4] of 3390 pM. For the same molecule, in assay [5], the concentration for half-maximal inhibition (IC50) was 1500 pM.
